No end group written: not given here.
Key:
Assay in all cases: phage ELISA
[1] = target: T1, streptavidin (UniProt P22629 37-163, limits assumed)
T1 construct: Negative control target; also called SA
Protocol: (§1) Wells of a 96-well microplate (Nunc, Maxisorp) were either coated with human Fc fragment solution or streptavidin as negative control. The wells were blocked with BSA and contacted with amplified population of each individual clone. Bound phages were detected by the addition of horseradish peroxidase (HRP)-conjugated anti-M13 monoclonal antibodies using the chromogenic substrate (3,3′,5,5′-tetramethylbenzidine (TMB)) solution, and absorbance at 450 nm was measured.
(§2) The binding activity of phage clone displaying the minimized peptide SEQ ID NO: 2, was further evaluated by phage ELISA (as described above) using different subclasses of native human IgGs and different therapeutic monoclonal antibodies. BSA, avidin and SA were used as targets in negative control wells.

[2] = target: T2, avidin (UniProt P02701 25-152)
T2 construct: Negative control target
T2 sequence (P02701 25-152 limits assumed): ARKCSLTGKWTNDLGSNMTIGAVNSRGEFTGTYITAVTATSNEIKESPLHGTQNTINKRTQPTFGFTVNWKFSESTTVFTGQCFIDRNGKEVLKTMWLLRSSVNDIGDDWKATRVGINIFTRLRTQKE
Protocol: as §1, §2

[3] = target: T3, BSA (UniProt P02769 25-607)
T3 construct: Negative control target; also called bovine serum albumin
T3 sequence (P02769 25-607 limits assumed): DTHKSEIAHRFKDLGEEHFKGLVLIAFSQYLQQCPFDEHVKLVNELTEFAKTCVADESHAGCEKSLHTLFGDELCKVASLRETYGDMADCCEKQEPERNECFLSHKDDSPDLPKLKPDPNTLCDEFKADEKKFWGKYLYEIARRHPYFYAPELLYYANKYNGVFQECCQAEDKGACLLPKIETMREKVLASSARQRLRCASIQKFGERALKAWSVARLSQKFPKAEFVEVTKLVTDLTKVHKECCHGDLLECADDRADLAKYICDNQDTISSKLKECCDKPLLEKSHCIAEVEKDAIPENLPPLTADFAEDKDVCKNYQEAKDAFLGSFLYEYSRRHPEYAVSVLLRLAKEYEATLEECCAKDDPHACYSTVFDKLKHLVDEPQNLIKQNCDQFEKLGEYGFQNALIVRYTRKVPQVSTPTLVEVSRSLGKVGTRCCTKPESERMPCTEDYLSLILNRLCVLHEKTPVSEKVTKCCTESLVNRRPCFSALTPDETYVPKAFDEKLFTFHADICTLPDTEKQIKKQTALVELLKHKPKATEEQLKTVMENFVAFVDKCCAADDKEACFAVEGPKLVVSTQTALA
Protocol: as §1, §2

Measured: binding result

T1 sequence (P22629 37-163 limits assumed): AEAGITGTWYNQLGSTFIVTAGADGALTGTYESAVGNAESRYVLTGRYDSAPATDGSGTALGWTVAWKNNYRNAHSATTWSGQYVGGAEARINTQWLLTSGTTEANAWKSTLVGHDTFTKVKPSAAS

B1: phage clone displaying the minimized peptide SEQ ID NO: 2 (peptide, not shown: large carriers)
peptide: GSYWYQVWF
modifications: also: displayed on phage as P3 coat protein fusion, fusion limits and linker not given here
no binding: all assays above

— patent publication US20210054042A1 (UNIVERZA V LJUBLJANI, published 2021)
